# Target: ligands present on the membranes of early apoptotic cells
# Assay: flow cytometry on anti-CD95-treated Jurkat E6-1 cells, streptavidin-PE detection
substance,measurement,value
"human soluble CD163, biotinylated (sCD163-biotin) (from UniProt Q86VB7 42-1045)",percent of early apoptotic Jurkat E6-1 cells binding sCD163-biotin,> 50%

# — patent US20050214871A1
